± gives the uncertainty stated by the source.
Assay: protein stability index of a GFP-peptide fusion (yeast GPS) (PSI 1-4); higher = more stable; sorted into four equal gates, so the index is relative within each strain
How it was run: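 Mid-log yeast cultures in leucine-free medium, carrying a pooled plasmid library, were sorted into four equal gates by their GFP/Cherry fluorescence ratio. Each plasmid expressed Cherry along with GFP fused upstream of a tiled 17-residue yeast protein peptide. Plasmids recovered from each gate were PCR-amplified and Illumina-sequenced, with reads assigned to strains by barcodes. The protein stability index was obtained by summing each gate's read frequency weighted by its gate number.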

Row | Sequence | protein stability index (doa10∆) | protein stability index (pdr5∆) | protein stability index (san1∆) | protein stability index (ubr1∆)
1 | KRKYLDIPIDEMTLPTS [SSN2] | 3.1 ± 0.24 | 2.81 ± 0.15 | 2.77 ± 0.19 | 3.21 ± 0.23
2 | YLMDSKNVRTRIKLATT [RRI1] | 2.09 ± 0.08 | 2.07 ± 0.073 | 1.61 ± 0.099 | 1.99 ± 0.061
3 | ASLTAARTAANSIYCPT [RPN6] | 2.53 ± 0.19 | 2.66 ± 0.1 | 2.84 ± 0.093 | 2.49 ± 0.045
4 | TMEVKSFPILDQCVGQV [YMR129W/POM152] | 2.19 ± 0.09 | 3.08 ± 0.11 | 2.34 ± 0.13 | 2.69 ± 0.06
5 | LSTSAFMEIVLEYNVAL [YML031W/NDC1] | 1.98 ± 0.037 | 1.71 ± 0.052 | 1.78 ± 0.08 | 2.12 ± 0.067
6 | SFIFQYYGLVIDLLLLG [PRP8] | 1.48 ± 0.12 | 1.2 ± 0.054 | 1.15 ± 0.16 | 1.24 ± 0.05
7 | APMDFAIVVGWRAIIKA [FAS1] | 2.51 ± 0.086 | 2.66 ± 0.08 | 2.57 ± 0.082 | 2.14 ± 0.062
8 | MAILLLYNDADVLTLEN [CDC53] | 1.58 ± 0.09 | 1.93 ± 0.063 | 2.5 ± 0.084 | 2.75 ± 0.06
9 | YSAAKKIPDTYTANTSA [YAR002W/NUP60] | 2.43 ± 0.11 | 2.19 ± 0.082 | 2.2 ± 0.077 | 2.55 ± 0.038
10 | LPDPILKNFLSYESLKK [MCD1] | 3 ± 0.094 | 3.14 ± 0.091 | 3.34 ± 0.046 | 3.37 ± 0.058
11 | KIRPWRTFRLNECVCTP [RPO31] | 1.31 ± 0.065 | 1.99 ± 0.064 | 1.73 ± 0.18 | 1.24 ± 0.092
12 | NSSVGNKTDAQAPTTGF [YJL041W/NSP1] | 3 ± 0.072 | 3.15 ± 0.056 | 3.19 ± 0.058 | 2.96 ± 0.094
13 | ILLTSISRERDLFTHLW [SRP68] | 2.85 ± 0.13 | 2.71 ± 0.18 | 2.75 ± 0.1 | 2.73 ± 0.11
14 | HHDGKLWNLNAYRTDVI [PRP8] | 2.94 ± 0.082 | 3.28 ± 0.092 | 3.04 ± 0.074 | 3.07 ± 0.071
15 | GINPNTFRIFHNHDTGC [YDL088C/ASM4] | 1.83 ± 0.073 | 1.85 ± 0.082 | 1.4 ± 0.15 | 1.44 ± 0.047
16 | TSPIDIREKVAKQALDL [SNF2] | 3.28 ± 0.14 | 3.17 ± 0.19 | 2.81 ± 0.13 | 2.69 ± 0.15
17 | WSFDLPEMSNLYRLSTP [PRP8] | 2.71 ± 0.049 | 2.71 ± 0.04 | 2.59 ± 0.038 | 2.67 ± 0.043
18 | DLLKNAPLFKKNSSRPM [SMD3] | 2.27 ± 0.047 | 1.76 ± 0.043 | 1.77 ± 0.11 | 1.62 ± 0.034
19 | WKRQISYFLKLLGNCYS [SRB8] | 1.63 ± 0.038 | 1.82 ± 0.042 | 1.69 ± 0.071 | 1.37 ± 0.037
20 | NDDALDLDLDLFDPDDF [MED4] | 2.88 ± 0.045 | 3.04 ± 0.068 | 2.81 ± 0.036 | 3.07 ± 0.032
21 | SLRILAKLSERSNGSVA [YJL039C/NUP192] | 2.5 ± 0.048 | 2.27 ± 0.04 | 1.93 ± 0.067 | 2.42 ± 0.043
22 | MAKSKNHTAHNQTRKAH [RPL29] | 1.7 ± 0.058 | 2.41 ± 0.08 | 1.96 ± 0.095 | 2.32 ± 0.067
23 | MKTPSLTVYLEPGHAAD [RPO21] | 3.01 ± 0.092 | 2.7 ± 0.079 | 2.9 ± 0.059 | 3 ± 0.073
24 | NNMNVNMNLNPQMFLNQ [GAL11] | 2.14 ± 0.043 | 2.56 ± 0.046 | 2.46 ± 0.048 | 2.48 ± 0.035
25 | VKKPQKSKTSTGKERSK [SNM1] | 3.15 ± 0.07 | 3.39 ± 0.085 | 3.549 ± 0.035 | 3.35 ± 0.062
26 | DVKLLNPIDIKRRFGEL [RPP1] | 2.46 ± 0.089 | 2.7 ± 0.078 | 2.38 ± 0.14 | 2.97 ± 0.047
27 | AAAYSHELPRYGITHGL [RPL5] | 2.64 ± 0.081 | 2.93 ± 0.064 | 2.98 ± 0.052 | 2.96 ± 0.074

Row | Sequence | protein stability index (doa10∆) | protein stability index (pdr5∆) | protein stability index (san1∆) | protein stability index (ubr1∆)
28 | SQLNIQLSQDEHSQVEQ [SRP72] | 3.17 ± 0.06 | 3.07 ± 0.047 | 3.16 ± 0.048 | 3.05 ± 0.066
29 | GFNMKKITTSTEDQKVT [SRP68] | 2.84 ± 0.065 | 2.67 ± 0.051 | 2.83 ± 0.074 | 2.42 ± 0.04
30 | FIRYDVKTPKKTKYILQ [CSN12] | 2.34 ± 0.048 | 2.29 ± 0.048 | 1.78 ± 0.057 | 2.35 ± 0.051
31 | QPVNPKPFLKGLVNHRV [SMX3] | 3.07 ± 0.054 | 3.09 ± 0.057 | 3.16 ± 0.041 | 3.06 ± 0.055
32 | CRKCYARLPPRATNCRK [RPL40A] | 3.09 ± 0.23 | 3.71 ± 0.28 | 3.13 ± 0.14 | 2.92 ± 0.13
33 | RLELLQLSPVKNSRVEL [SMC4] | – | 3.54 ± 0.25 | 3.22 ± 0.13 | –
34 | KNLIQLISLKLLTFEVT [SRB8] | 1.28 ± 0.081 | 1.19 ± 0.054 | 1.24 ± 0.13 | 1.1 ± 0.071
35 | QNSSKIVNVLSKCLNLI [SWI3] | 2.21 ± 0.057 | 1.98 ± 0.048 | 1.96 ± 0.093 | 1.31 ± 0.044
36 | SEPIKEIIDNWEKYEQS [FAS1] | 2.88 ± 0.097 | 3.22 ± 0.07 | 3.23 ± 0.048 | 2.96 ± 0.059
37 | RVASDTVHEMEEELKKL [SMC4] | 3.37 ± 0.21 | 3.33 ± 0.18 | 3.29 ± 0.12 | 3.63 ± 0.19
38 | MGENEKPDVTYADVGGL [RPT3] | 3.07 ± 0.18 | 3.41 ± 0.074 | 3.28 ± 0.1 | 3.31 ± 0.079
39 | KASELKLALGIALEGYR [RPN2] | 2.62 ± 0.15 | 2.28 ± 0.18 | – | 2.56 ± 0.097
40 | RKRAHSLVSTQSSSSTR [REC8] | 2.86 ± 0.069 | 2.94 ± 0.068 | 2.77 ± 0.051 | 2.92 ± 0.068
41 | LLNEWSHNVDELLEHIE [RPN5] | 2.57 ± 0.12 | 1.9 ± 0.09 | 2.13 ± 0.19 | 1.58 ± 0.061
42 | RALKVRNAQAQREAAAE [RPS6A] | 3 ± 0.14 | 2.98 ± 0.1 | 2.74 ± 0.074 | 2.94 ± 0.13
43 | PLIWQLLQSSIINKLIH [POP3] | 2 ± 0.059 | 2.38 ± 0.062 | 2.01 ± 0.096 | 1.84 ± 0.028
44 | KRHRSSYYDNDLDETTQ [YML031W/NDC1] | 2.8 ± 0.065 | 2.76 ± 0.071 | 2.68 ± 0.053 | 2.71 ± 0.071
45 | PGGILRAQHVKKLATRP [RPL34A] | 3.04 ± 0.24 | 3.39 ± 0.21 | 3.37 ± 0.16 | 3.02 ± 0.14
46 | RYISTLTLYLFQDYLTQ [IRR1] | 2.14 ± 0.2 | 1.76 ± 0.08 | 3.14 ± 0.24 | 3.38 ± 0.27
47 | RTPDSISVNSSSFSLTF [POP1] | 2.56 ± 0.045 | 2.62 ± 0.042 | 2.44 ± 0.045 | 2.37 ± 0.038
48 | NKLGNKRLTEDERIEKE [CDC53] | 2.38 ± 0.15 | 3.13 ± 0.095 | 2.31 ± 0.059 | 2.42 ± 0.11
49 | YCHEKELTIIKNPRVTK [CSN9] | 2.55 ± 0.098 | 2.29 ± 0.18 | 2.14 ± 0.2 | 2.13 ± 0.13
50 | IQGISKMYSDDTLKDIS [BRN1] | 3.24 ± 0.17 | 3.35 ± 0.15 | 3.37 ± 0.15 | 3.05 ± 0.17
51 | SKGFVFNSVQKKSRSNL [YAR002W/NUP60] | 3.03 ± 0.2 | – | 2.96 ± 0.17 | –
52 | NKLTILGRDYPIEVDEE [IRR1] | 2.28 ± 0.1 | 2.56 ± 0.12 | 2.38 ± 0.11 | 2.64 ± 0.066
53 | VTKDTKKYSSKNKYGEI [SRP68] | 2.82 ± 0.11 | 2.66 ± 0.099 | 2.52 ± 0.086 | 2.77 ± 0.068
54 | NDLGKFIPNKQLNCVID [RPN7] | 2.49 ± 0.13 | 2.85 ± 0.19 | 2.77 ± 0.17 | 3.05 ± 0.19
